The source of these data is FireProtDB (doi:10.1002/prot.20309).

Sequences and labels used below:
B1: Beta-lactoglobulin-1A/1C wild type, P04119 (protein)
chain: MRCLLLTLGLALLCGVQAVEVTPIMTELDTQKVAGTWHTVAMAVSDVSLLDAKSSPLKAYVEGLKPTPEGDLEILLQKRENDKCAQEVLLAKKTDIPAVFKINALDENQLFLLDTDYDSHLLLCMENSASPEHSLVCQSLARTLEVDDQIREKFEDALKTLSVPMRILPAQLEEQCRV
B2: Beta-lactoglobulin wild type, P02754 (protein)
chain: MKCLLLALALTCGAQALIVTQTMKGLDIQKVAGTWYSLAMAASDISLLDAQSAPLRVYVEELKPTPEGDLEILLQKWENGECAQKKIIAEKTKIPAVFKIDALNENKVLVLDTDYKKYLLFCMENSAEPEQSLACQCLVRTPEVDDEALEKFDKALKALPMHIRLSFNPTQLEEQCHI

For one series the following is noted: Sus scrofa; pH 2; 25 °C; GdnHCl; Fluorescence; Phosphate 10 mM; whole UniProt chain shown.
Consider B1, for which the denaturant m value amounted to 2.2 kcal/mol/M, the “denaturant midpoint (higher = more stable)” value (“denaturant midpoint” for short) came to 1 M and the unfolding free energy is 2.1 kcal/mol.

The same series, now with this note: Sus scrofa; pH 2; 25 °C; GdnHCl; NMR; Phosphate 10 mM; whole UniProt chain shown.
As for B1, the denaturant m value was found to be 3.5 kcal/mol/M, the “denaturant midpoint” value came to 0.7 M and the unfolding free energy worked out at 2.3 kcal/mol.

Staying with this series, now noted: Sus scrofa; pH 6; 25 °C; GdnHCl; NMR; Phosphate 10 mM; whole UniProt chain shown.
As for B1, the denaturant m value was 4.2 kcal/mol/M, the “denaturant midpoint” value turned out to be 1.1 M and the unfolding free energy amounted to 4.6 kcal/mol.

The series is the same for the next values; noted with them: Bos taurus; pH 2; 25 °C; GdnHCl; CD; Phosphate 10 mM; transition: 3; whole UniProt chain shown.
Regarding B2, the denaturant m value is 1 kcal/mol/M, the “denaturant midpoint” value was determined as 3.8 M and the unfolding free energy is 12.8 kcal/mol.

Still in this series, the particulars now being: Bos taurus; pH 6; 25 °C; GdnHCl; CD; Phosphate 10 mM; whole UniProt chain shown.
With B2, the denaturant m value is 4.1 kcal/mol/M, the “denaturant midpoint” value was 2.8 M and the unfolding free energy was found to be 11.5 kcal/mol.
